Results published in patent publication US20140072563A1 (Regeneron, published 2014).

Legend:
ErbB3-mFc = target: T1, ErbB3-mFc (human); experiment: blocking ELISA: antibody (0-50 nM) + 50 pM ErbB3-mFc, binding to coated neuregulin1b
T1 construct: Dimeric soluble ErbB3; also called hErbB3.mFc
T1 chain: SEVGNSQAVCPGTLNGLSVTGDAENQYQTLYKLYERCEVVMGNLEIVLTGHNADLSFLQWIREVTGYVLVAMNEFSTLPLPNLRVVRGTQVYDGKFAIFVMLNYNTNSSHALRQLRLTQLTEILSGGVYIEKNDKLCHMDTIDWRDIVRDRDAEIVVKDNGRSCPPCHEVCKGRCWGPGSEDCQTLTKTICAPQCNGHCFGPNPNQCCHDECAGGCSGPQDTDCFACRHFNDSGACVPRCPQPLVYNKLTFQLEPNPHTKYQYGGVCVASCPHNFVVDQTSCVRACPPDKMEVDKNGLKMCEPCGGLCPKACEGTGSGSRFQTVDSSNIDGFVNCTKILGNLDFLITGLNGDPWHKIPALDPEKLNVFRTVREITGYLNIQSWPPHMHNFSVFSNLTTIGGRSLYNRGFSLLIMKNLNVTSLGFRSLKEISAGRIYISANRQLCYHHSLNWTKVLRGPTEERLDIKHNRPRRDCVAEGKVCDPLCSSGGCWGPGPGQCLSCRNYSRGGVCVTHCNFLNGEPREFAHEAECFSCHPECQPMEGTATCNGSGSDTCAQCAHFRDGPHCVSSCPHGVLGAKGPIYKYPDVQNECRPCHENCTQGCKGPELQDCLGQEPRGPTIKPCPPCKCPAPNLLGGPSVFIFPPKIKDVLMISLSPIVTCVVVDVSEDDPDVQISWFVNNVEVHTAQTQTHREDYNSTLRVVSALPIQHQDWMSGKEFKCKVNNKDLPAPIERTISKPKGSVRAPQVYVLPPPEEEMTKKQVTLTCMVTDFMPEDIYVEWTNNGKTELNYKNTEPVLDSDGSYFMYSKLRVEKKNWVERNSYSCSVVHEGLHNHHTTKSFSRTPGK
Description: To further characterize anti-hErbB3 mAbs of the present invention, their ability to block ligand binding was examined via ELISA. […] Plates were washed and non-sequestered (plate bound) ErbB3 was detected with an anti-Fc poly conjugated with horseradish peroxidase (HRP). Plates were developed with TMB (3,3′,5,5′-tetramethylbenzidine) and neutralized with sulfuric acid before reading absorbance at 450 nm on a Victor X5 plate reader. Data analysis used a sigmoidal dose-response model within Prism™ software. […] Maximal blocking for each antibody was calculated by taking the difference in absorbance from zero to 50 nM antibody on the inhibition curve, divided by the difference in absorbance from 50 pM to zero ErbB3 on the dose curve.

[1] = target: ErbB3 (cell surface, on MCF-7, DU145, A431 and MCF7 cells) (human, UniProt P21860 20-1342); experiment: cell-based or functional assay

Binder	IC50 (ErbB3-mFc) [nM]	Maximal Blocking (%) (ErbB3-mFc)	Percent inhibition of Akt phosphorylation, 0.01 µg/ml ErbB3 antibody, DU145 cells + 0.5 nM NRG1 [1] [%]	Percent inhibition of Akt phosphorylation, 0.1 µg/ml ErbB3 antibody, DU145 cells + 0.5 nM NRG1 [1] [%]	Percent inhibition of Akt phosphorylation, 0.5 µg/ml ErbB3 antibody, DU145 cells + 0.5 nM NRG1 [1] [%]
H4H2140P (antibody, human IgG4, V domains shown, Human IgG4 Fc (prefix H4H)) VH: EVQLVESGGGLVQPGGSLRLSCAASGFSVSYYDMHWVRQVTGKGLEWVSAIGPAGDTYYPGSVKGRFTISREDATNSLYLQIHSLGAGDTAVYYCAREGAIAARPDDYYGMDVWGQGTTVTVSS VL: DIQLTQSPSFLSASVGDRVTITCWASQDISSYLAWYQQKPGKAPKLLIYAASTLQSGVPSRFSGSGSGTEFTLTISSLQPEDFATYYCQQLNSYPLTFGGGTKVEIKR	0.0946	83			
H4H2143P (antibody, human IgG4, V domains shown, Human IgG4 Fc (prefix H4H)) VH: EVQLVESGGGLVQPGRSLRLSCAASGFTFGDYAMHWVRQAPGKGLEWVSGINLNSGTIGYADSVKGRFTISRDNAKNSLYLQMNSLRAEDTAFYYCAKDIDGYYHYAMDVWGQGTTVTVSS VL: DVVMTQSPSFLSASVGDRVTITCWASQGISSYLAWYQQKPGKAPKLLIYDASTLESGVPSRFSGSGSGTEFTLTISNLQPEDFATYYCQQVNSYPLTFGGGTKVEIKR	0.0835	92			
H4H2147P (antibody, human IgG4, V domains shown, Human IgG4 Fc (prefix H4H)) VH: QVQLVESGGGLVKPGGSLRLSCAASGFTFSDFNMGWIRQAPGKGLEWVSHISGSGNVIYYADSVKGRFAISRDNGKNSLYLQVNSLRAEDTAVYYCARDIGDSDAFDIWGQGTMVTVSS VL: DIQLTQSPSFLSASVGDRVTITCWASQDISSYLAWYQQKPGKAPKLLIYGASTLESGVPSRFSGSGSGTEFTLTISSLQPEDVATYYCQQLNTYPLTFGGGTKVEIKR	0.0506	99			
H1M1819N (antibody, V domains shown) VH: EVQLVESGGGVVRPGGSLRLSCAASGFTFDDYAMHWVRQAPGKGLEWVAGISWNSGSIDYADSVKGRFTISRDNAKNSLYLQMNSLRAGDTALYYCAKDILDLDYYGLDVWGQGTTVTVSS VL: DIQMTQSPSSLSASVGDRVTITCRASQDISSYLAWYQQKPGKVPNLLIYDASSLQSGVPSRFSGSGSGTDFTLTLSSLQPEDFASYYCQNYNSAPYTFGQGTKLEIK			29	72	75
H4H2290P (antibody, human IgG4, V domains shown, Human IgG4 Fc (prefix H4H)) VH: EVQLLESGGGLVQPGGSLRLSCVASGFTFSSFAMSWVRQAPGKGLEWVSVISGSGGSTNHADSVRGRFTISRDNSLNTVYLQMHSLRAEDTALYYCVKAETSSSYFYYGMDVWGQGTTVTVSS VL: DIQLTQSPSFLSASVGDRVTITCWASQDISSYLAWYQQKPGKVPNLLIYGASSLQPGVPSRFSGSGSGTEFTLTISSLQPEDFATYYCQQLNNYPTFGGGTKLEIKR	0.0664	99			
H4H2138P (antibody, human IgG4, V domains shown, Human IgG4 Fc (prefix H4H)) VH: QVQLQESGPGLVKPSQTLSLTCTVSGGSINSGGYYWSWIRQHPGKGLEWIGYISYSGNTNYNPSLKSRVTISVDTSKNQFSLTLTSVTAADTAVYYCARDSDVDTGLVDGFDVWGQGTMVTVSS VL: DIVMTQSPSSVSASVGDRVTITCRASQGVSSWLAWYQQKPGKAPKLLIYTTSSLQSGVPSRFSGSGSGTDFTLTISSLQPEDFATYYCQQSNSFPFTFGPGTKVEIK	0.106	96			
H4H2132P (antibody, human IgG4, V domains shown, Human IgG4 Fc (prefix H4H)) VH: EVQLVESGGGVVRPGGSLRLSCAASGFTFDDYGMSWVRQFPGKGLEWVSSIDGNGGNTGYSDSVKGRFTISRDNAKNSLHLQMNSLRAEDTALYHCARDPDYDSVWGNYRPFDYWGQGTLVTVSS VL: DIVMTQSPDSLAVSLGERATINCKSSQSVLSSSNDNNYLAWFQQKPGQPPNLLIYWASTRDSGVPDRFSASGSGTDFTLAISSLQAEDVAVYYCHQYYSSPPTFGQGTKVEIKR	0.0957	94			
H2M1824N (antibody, mouse IgG2, V domains shown) VH: EVQLVESGGGVVRPGGSLRLSCAASGFTFDDYGMSWVRQAPGKGLECVSGINWNGGSTDYADSVKGRFTISRDNAKNSLYLQMNSLRAEDTASYYCARDGGDWDYFDLWGRGTLVTVSS VL: EIVMTQSPATLSVSPGERATLSCRASQSVSSNLAWYQQKPGQAPRLLIYGASTRATGIPARFSGSGSGTEFTLTISSLQSEDFAVYFCQEYNDWPLTFGGGTKVEIK			25	63	74
H2M1827N (antibody, mouse IgG2, V domains shown) VH: EVQLVESGGGVVRPGGSLRLSCAASGFTFDDYGMSWVRQAPGKGLECVSGISWNGGNTDYADSVKGRFTISRDNAKNSLYLQMNSLRAEDTALYHCARDGGDWDYFDLWGRGTLVTVSS VL: EILMTQSPATLSVSPGERATLSCRASQSVSSNLAWYQQKPGQAPRLLIYGASTRATGIPARFSGSGSGTEFTLTISSLQSEDFAIYYCQEYNDWPLTFGGGTKVEIK			16	73	75
H4H2151P (antibody, human IgG4, V domains shown, Human IgG4 Fc (prefix H4H)) VH: QVQLVESGGGVVQPGRSLRLSCAASGFTFSNYGMHWVRQAPGKGLEWVARIWYDGSNKYYADSVKGRFTISRDSSKNTLYLQMNSLRAEDTAVYYCAREGEQNLDYYPLDVWGQGTTVTVSS VL: DIVMTQSPSSLSASVGDRVTITCRASQDIRNDLGWYQQKPGKAPKLLIYAASSLQTGVPSRFSGSVSGTDFTLTISSLQPEDFATYYCLQDYTYPLTFGGGTKVEIK	0.0751	85			
H4H2148P (antibody, human IgG4, V domains shown, Human IgG4 Fc (prefix H4H)) VH: EVQLVESGGGLVHPGRSLRLSCAASGFTFDDYAMHWVRQSPGKGLEWVSGISWNSVIKHSTDSVRGRFTISRDNAKNSLYLQMNSLKPEDTAFYYCAKDEDDWNYLDYWGQGTLVTVSS VL: DIQMTQSPSSVSASVGDRVTITCRASQDINSWLAWYQQKPGKAPKLLIYTSSNLQSGVPSRFSGSGSGTDFTLTISSLQPEDFATYYCQQSDSFPFTFGPGTKVDIKR	0.0508	100			
H4H2154P (antibody, human IgG4, V domains shown, Human IgG4 Fc (prefix H4H)) VH: QVQLQESGPGLINPSQTLSVTCTVSGGSISSGGYYWTWIRQHPGKGLEWIGYISYSGNTNYNPSLKSRVTISVDTAKNQFSLKLSSVTAADTAVYFCARDSDVDTAMVDGIDIWGQGTMVTVSS VL: DIQMTQSPSSVSASVGDRVTITCRASQDISSWLAWYQQKPGRAPKLLIYTASSLQSGVPSRFSGSGSGTDFTLTISSLQPEDFATYFCQQANSFPFTFGPGTKVDIKR	0.0901	91			
H4H2153P (antibody, human IgG4, V domains shown, Human IgG4 Fc (prefix H4H)) VH: QVQLVQSGAEVKKPGASVKVSCKASGYTFTRYGISWVRQAPGLGLEWMGWISAYDGYTNFAQKFQGRFTMTTDTSTNTAYMELRGLRSDDTAVYYCAREEEDAAFDIWGQGTMVTVSS VL: not shown	0.074	82			
H2M1821N (antibody, mouse IgG2, V domains shown) VH: EVQLVESGGGLVQPGRSLRLSCAASGFTFDDYAMHWVRQAPGKGLEWVSSISWNSGSIGYADSVKGRFTISRDNAKNSLYLQMNSLKPEDTALYYCTKDTDYGDYLDAFDIWGQGTMVAVAS VL: not shown			11	68	73
H4H2146P (antibody, human IgG4, V domains shown, Human IgG4 Fc (prefix H4H)) VH: QVQLVESGGGVVQPGRSLRLSCAASGFTFINYGIHWVRQGPGKGLEWVAVIWYDGSNEWYADSVKGRFTISRDNSKNTVYLEMNKLRAEDTAVYYCAREEEDYGMDVWGQGTTVTVSS VL: not shown	0.177	83			
H4H2114P (antibody, human IgG4, V domains shown, Human IgG4 Fc (prefix H4H)) VH: QVQLVESGGGVVQPGRSLRLSCAASGFTFSSYGMHWVRQAPGKGLEWVAGMSYDGSSKYYEDSVKGRFTISRDNSKNTLNLQMNSLRVEDTAVYYCAKERDYVEYVDSYYGMDVWGQGTTVTVSA VL: AIQMTQSPSSLSASVGDRVTITCRASQGIRNDLGWYQQKPGKAPKVLIYAASSLQSGVPSRFSGSGSGTVFTLTISSLQPEDFATYYCLQDYNYPLTFGGGTKVEIKR	0.163	91			
